Measured values: patent publication US9739733B2, “Methods for monitoring tight clot formation” (T2 Biosystems, Inc., priority 2012, dated 2017)

Assays:
[1] = tested on: IIb/IIIa receptor of human platelets; assay: TEG clot strength (MA) of whole blood spiked with abciximab; type: cell-based; settings: patient sample 29494
Description: The clotting of a whole blood sample was perturbed using the antithrombotic agent abciximab (ReoPro®). Abciximab is the Fab fragment of a human-murine monoclonal antibody that binds to the IIb/IIIa receptor of human platelets and inhibits platelet aggregation. Abciximab serves to inhibit the retraction of a clot during the clotting process.
Samples containing abciximab were prepared according to the following procedure and referenced in the application and Figures by a number corresponding to the concentration of abciximab in units of μg/mL.
1. Blood was drawn from normal donors into six citrate tubes. Normal donors must not have taken aspirin or any anti-platelet drug in the past two weeks.
2. The six tubes of blood were pooled and mixed gently by inversion eight to ten times. Samples were used within two hours of collection.
3. A abciximab solution (10 mg/5 mL) was diluted at a ratio of 1:4 using saline as a diluent to form “solution 1.”
4. The blood was spiked with solution 1 and saline according to Table 5
5. The samples were allowed to sit for at least five minutes prior to running any sample in a T2reader or Bruker minispec.
In a second experiment, five aliquots of patient sample 29494 were prepared with different concentrations (0, 2, 4, 8, and 0 μg/mL) of abciximab prior to initiation of the clotting process. The T2 relaxations times for the samples were measured in series, with each set of measurements lasting approximately 50 min. The first sample tested and the final sample tested contained no added abciximab. The collected T2 decay curves were processed using Inverse Laplace Transforms, as described in Example 18. […] The difference in the curve shape between the first sample run and the final sample run, both of which contained no added abciximab, may be evidence of an effect of sample age on the T2 time distribution. The corresponding TEG-determined MA values for these samples was 60.7, 61.4, 30.4, and 22.0, respectively.

[2] = tested on: platelet activity in whole blood; assay: T2 relaxation spectra / 3D plots of clotting whole blood spiked with abciximab; type: cell-based, human
Description: T2 relaxation rate data was collected from CK blood samples drawn from healthy patients. For each sample, a series of T2 decay curves were measured over a period of 50 minutes. The decay curves were each processed using an Inverse Laplace Transform (ILT CONTIN) to provide an array of curves showing T2 intensity as a function of T2 time. […] FIG. 20 illustrates the 3D data sets for patient samples 29328 and 29350 collected on a Bruker minispec. […] At a time between 5 minutes and 30 minutes, the single water population diverged into two significant water populations. These two water populations correspond to the two components of the clot, i.e., the retracted clot and the serum surrounding the retracted clot. […] For some samples these two peaks were not entirely resolved. The correlation between the water populations and the components of the clotted sample was confirmed by separating the retracted clot from the surrounding serum and separately measuring the T2 data for these two components.
In a first experiment, four aliquots of patient sample 29488 were prepared with different concentrations of abciximab (0, 2, 4, and 8 μg/mL) prior to initiation of the clotting process. The T2 relaxation times for the four samples were measuring over the course of clot formation and the corresponding 3D plots were determined using the technique described in Example 13. […] This physical change is evidenced and quantified in the corresponding 3D plots (FIG. 21), showing fast exchange of water within the uniform sample at the highest concentration of abciximab.
In a second experiment, five aliquots of patient sample 29494 were prepared with different concentrations (0, 2, 4, 8, and 0 μg/mL) of abciximab prior to initiation of the clotting process. The T2 relaxations times for the samples were measured in series, with each set of measurements lasting approximately 50 min. […] The corresponding TEG-determined MA values for these samples was 60.7, 61.4, 30.4, and 22.0, respectively.

whole blood clot [3] = assay: T2Coagulation / TEG LY30 fibrinolysis in healthy patient blood; type: cell-based, human; settings: kaolin runs
Description: Five different healthy patient samples were used to test whether T2Coagulation was sensitive to fibrinolysis. Addition of tissue plasminogen activator (TPA) was used to simulate fibrinolysis by adding it at two levels to healthy patient blood. TPA cleaves fibrin as it forms. It was observed that fibrinolysis can be detected within 10 minutes on T2Coagulation, which is less than half the time required for detection on TEG. For all five patients there was a clear difference between healthy and fibrinolytic samples.
There are several potential features that can be used for this correlation. Three that were investigated were the difference between (i) the minimum and maximum T2B values (FIG. 13), (ii) the average of the T2B values over the final 25 minutes of the T2B curves, and (iii) the T2B values at 10 minutes. All had correlations with R^2 values between 0.72 and 0.79. The correlation plots show a higher sensitivity of T2Coagulation for fibrinolysis than TEG. This can be seen by the groupings for the different levels of fibrinolysis in FIG. 13. The healthy patient samples are circled with the solid line. […] The T2Coagulation T2B term can be detected in as little as 10 minutes, which is much faster than the TEG LY30 term can be detected, indicating the utility of the T2Coagulation signal for more rapid measurement of fibrinolysis.

whole blood clot [4] = assay: T2MR whole blood fibrinolysis with spiked TPA; type: cell-based, human; settings: 100 U/mL TPA, blood from a healthy donor
Description: The T2MR surface is also sensitive to whole blood fibrinolysis. To assess this, healthy donor samples were spiked with tissue plasminogen activator (TPA).
TPA was added at 100 U/mL to blood from a healthy donor. In the absence of TPA (see FIG. 27a) two stable peaks form at the expected clotting time. […] Both the instability and the distance between the final T2 peaks indicate sensitivity to fibrinolysis induced by the presence of TPA.
The T2MR effect on fibrinolysis was expressed in AU values (arbitrary units; see FIG. 27c) obtained by calculating the difference between the maximum and minimum T2 value observed for the clot signal (or T2B) in the T2 time curve.
Fibrinolysis was monitored by T2 magnetic resonance (T2MR) in five patient blood samples with and without the addition of TPA (100 U/mL) (FIG. 27c). […] All other samples required addition of TPA to induce fibrinolysis, as confirmed by the reference method.

B1: abciximab (antibody, chains of the INN, looked up, V domains shown)
VH: EVQLQQSGTVLARPGASVKMSCEASGYTFTNYWMHWVKQRPGQGLEWIGAIYPGNSDTSYIQKFKGKAKLTAVTSTTSVYMELSSLTNEDSAVYYCTLYDGYYVFAYWGQGTLVTVSA
VL: EIVLTQSPVTLSVTPGDSVSLSCRASRDISNNLHWFQQTSHESPRLLIKYASQSMSGIPSRFSGSGSGTDFTLSINSVETEDFGMYFCQQTNSWPYTFGGGTKLEIK
modifications: Fab
B1 was tested, and the “TEG-determined MA” value ([1]; abciximab 2 μg/mL) was 61.4, the “TEG-determined MA” value ([1]; abciximab 4 μg/mL) was 30.4 and the “TEG-determined MA” value ([1]; abciximab 8 μg/mL) was 22.0. For the same molecule, the “clot associated and serum associated T2 signal” value ([2]; 8 μg/mL Reopro®, T2reader) was “reduces the signal intensity of the clot associated signal and shifts the serum associated signal to lower T2 values”, the “distribution of T2 signals within the initial water population” value ([2]; at 0.1 minutes, abciximab 2, 4, 8 μg/mL, patient sample 29494) was “narrower distribution of T2 signals” and the “retracted clot and serum water populations in 3D plot” value ([2]; highest concentration of abciximab (8 μg/mL), patient sample 29488) was “no longer two phases visible within the clot”.

B2: Cathflo®: recombinant alteplase manufactured by Genentech (protein, UniProt P00750 36-562, looked up)
Tissue-type plasminogen …: SYQVICRDEKTQMIYQQHQSWLRPVLRSNRVEYCWCNSGRAQCHSVPVKSCSEPRCFNGGTCQQALYFSDFVCQCPEGFAGKCCEIDTRATCYEDQGISYRGTWSTAESGAECTNWNSSALAQKPYSGRRPDAIRLGLGNHNYCRNPDRDSKPWCYVFKAGKYSSEFCSTPACSEGNSDCYFGNGSAYRGTHSLTESGASCLPWNSMILIGKVYTAQNPSAQALGLGKHNYCRNPDGDAKPWCHVLKNRRLTWEYCDVPSCSTCGLRQYSQPQFRIKGGLFADIASHPWQAAIFAKHRRSPGERFLCGGILISSCWILSAAHCFQERFPPHHLTVILGRTYRVVPGEEEQKFEVEKYIVHKEFDDDTYDNDIALLQLKSDSSRCAQESSVVRTVCLPPADLQLPDWTECELSGYGKHEALSPFYSERLKEAHVRLYPSSRCTSQHLLNRTVTDNMLCAGDTRSGGPQANLHDACQGDSGGPLVCLNDGRMTLVGIISWGLGCGQKDVPGVYTKVTNYLDWIRDNMRP
modifications: alteplase
notes: recombinant alteplase manufactured by Genentech
For B2, the degree of fibrinolysis (whole blood clot [3]; 60 ng/mL) was “partially fibrinolytic” and the degree of fibrinolysis (whole blood clot [3]; 118 ng/mL) was “fully fibrinolytic”.

B3: TPA: tissue plasminogen activator (protein, UniProt P00750 36-562, looked up)
Tissue-type plasminogen …: SYQVICRDEKTQMIYQQHQSWLRPVLRSNRVEYCWCNSGRAQCHSVPVKSCSEPRCFNGGTCQQALYFSDFVCQCPEGFAGKCCEIDTRATCYEDQGISYRGTWSTAESGAECTNWNSSALAQKPYSGRRPDAIRLGLGNHNYCRNPDRDSKPWCYVFKAGKYSSEFCSTPACSEGNSDCYFGNGSAYRGTHSLTESGASCLPWNSMILIGKVYTAQNPSAQALGLGKHNYCRNPDGDAKPWCHVLKNRRLTWEYCDVPSCSTCGLRQYSQPQFRIKGGLFADIASHPWQAAIFAKHRRSPGERFLCGGILISSCWILSAAHCFQERFPPHHLTVILGRTYRVVPGEEEQKFEVEKYIVHKEFDDDTYDNDIALLQLKSDSSRCAQESSVVRTVCLPPADLQLPDWTECELSGYGKHEALSPFYSERLKEAHVRLYPSSRCTSQHLLNRTVTDNMLCAGDTRSGGPQANLHDACQGDSGGPLVCLNDGRMTLVGIISWGLGCGQKDVPGVYTKVTNYLDWIRDNMRP
For B3, the “clot stability (T2MR peaks)” value (whole blood clot [4]) was “unstable after 20-30 minutes”.
